Source: US20160144050A1 (PHAROSGEN, published 2016)
Primed or numbered codes have the meaning given here. No end group written: not given here. *: point of attachment. Hexanoyl(6-maleimido) = O=C1C=CC(=O)N1CCCCCC(=O)*; PABC′ = p-aminobenzylcarbamate

Columns and labels:
[1] = molecular target: HSA-maleimide-KGDEVD-PABC-doxorubicin (SEQ ID NO: 28)
[2] = molecular target: T1, human serum albumin (HSA) (human, UniProt P02768 25-609); experiment: analytical HPLC; 100 µM conjugate with 700 µM purchased HSA in PBS, room temperature; covalent binding
T1 construct: also called commercially available human serum albumin; human serum albumin in human plasma
Method: A human serum albumin (HSA) solution was prepared in PBS at final concentration of 700 μM. […] The samples were subjected to analytical HPLC (see FIG. 21).

Binder	HPLC monitored cleavage; liberation of free doxorubicin [1]	binding result [2]
recombinant human caspase-3 (protein) SGISLDNSYKMDYPEMGLCIIINNKNFHKSTGMTSRSGTDVDAANLRETFRNLKYEVRNKNDLTREEIVELMRDVSKEDHSKRSSFVCVLLSHGEEGIIFGTNGPVDLKKITNFFRGDRCRSLTGKPKLFIIQACRGTELDCGIETDSGVDDDMACHKIPVEADFLYAYSTAPGYYSWRNSKDGSWFIQSLCAMLKQYADKLEFMHILTRVNRKVATEFESFSFDATFHAKKQIPCIVSMLTKELYFYH	The free doxorubicin was completely liberated from the HSA-maleimide-KGDEVD-PABC-doxorubicin (SEQ ID NO: 28) conjugate within 1 hour	–
K(Hexanoyl(6-maleimido))GDEVD-{PABC′-doxorubicin} (not fully specified (N-terminus), Peptide-drug prodrug conjugate) [maleimide-KGDEVD-PABC-doxorubicin (SEQ ID NO: 10)]	–	binds
